Measured values from patent publication US20260137822A1.

Tests used:
[1] = target: human FOLR1 (recombinant antigen) (human) (UniProt P15328); experiment: ELISA on hFOLR1
[2] = target: FOLR1 on OVCAR3 cells (UniProt P15328); experiment: cell binding to FOLR1-positive OVCAR3 cells
[3] = target: FOLR1 on cells (OVCAR3, OV-90) (UniProt P15328); experiment: flow cytometry on FOLR1 expressing OV-90 cells, Geomeans RL1-H against Conc (nM) [top panel]
[4] = target: human FOLR1 (recombinant antigen) (human) (UniProt P15328); experiment: BLI (Octet), construct captured on AHC biosensor, hFOLR1 as analyte

Chain of FOLR1 on OVCAR3 cells (P15328 25-234): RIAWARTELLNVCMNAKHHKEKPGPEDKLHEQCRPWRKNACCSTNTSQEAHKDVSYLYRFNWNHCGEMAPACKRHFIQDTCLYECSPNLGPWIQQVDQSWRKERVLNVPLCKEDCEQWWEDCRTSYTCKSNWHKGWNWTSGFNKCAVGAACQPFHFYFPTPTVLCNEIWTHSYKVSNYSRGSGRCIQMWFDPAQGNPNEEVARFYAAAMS
Chain of human FOLR1 (recombinant antigen) (human) (P15328 25-234 limits assumed): as the sequence (P15328 25-234) above
Chain of FOLR1 on cells (OVCAR3, OV-90) (P15328 25-234): as above

Row | Binder | EC50 [1] | EC50 [2] | EC50 (read off the curve) [3] | Kd [4] | koff [4] | kon [4]
1 | Farletuzumab (antibody, INN chains, looked up, V domains shown) VH: EVQLVESGGGVVQPGRSLRLSCSASGFTFSGYGLSWVRQAPGKGLEWVAMISSGGSYTYYADSVKGRFAISRDNAKNTLFLQMDSLRPEDTGVYFCARHGDDPAWFAYWGQGTPVTVSS VL: DIQLTQSPSSLSASVGDRVTITCSVSSSISSNNLHWYQQKPGKAPKPWIYGTSNLASGVPSRFSGSGSGTDYTFTISSLQPEDIATYYCQQWSSYPYMYTFGQGTKVEIKR | 0.12 nM | 0.71 nM | 2 nM |  |  | 
2 | Anti-FOLR1x4 GGGGSx3 (monospecific tetravalent VHH-VHH-Fc) (antibody, part only; not given: hinge and wild-type Fc, not shown: a dimerising Fc or GST) chain, part: QVQLVESGGGLVQPGGSLRLSCAASGFTVSNSVMAWYRQTPGNEREFVAIINSIGITNYADSVKGRFTISRDNSKNTLYLQMNSLRAEDTAVYVCNRNFDRIYWGQGTLVTVSSGGGGSGGGGSGGGGSQVQLVESGGGLVQPGGSLRLSCAASGFTVSNSVMAWYRQTPGNEREFVAIINSIGITNYADSVKGRFTISRDNSKNTLYLQMNSLRAEDTAVYVCNRNFDRIYWGQGTLVTVSS | 0.12 nM | 0.28 nM |  | 2.86 nM | 0.000953 s⁻¹ | 333000 M⁻¹ s⁻¹
3 | Anti-FOLR1x4 GGSx3 (monospecific tetravalent VHH-VHH-Fc) (antibody, part only; not given: hinge and wild-type Fc, not shown: a dimerising Fc or GST) chain, part: QVQLVESGGGLVQPGGSLRLSCAASGFTVSNSVMAWYRQTPGNEREFVAIINSIGITNYADSVKGRFTISRDNSKNTLYLQMNSLRAEDTAVYVCNRNFDRIYWGQGTLVTVSSGGSGGSGGSQVQLVESGGGLVQPGGSLRLSCAASGFTVSNSVMAWYRQTPGNEREFVAIINSIGITNYADSVKGRFTISRDNSKNTLYLQMNSLRAEDTAVYVCNRNFDRIYWGQGTLVTVSS | 0.11 nM | 0.49 nM |  | 2.52 nM | 0.00087 s⁻¹ | 345000 M⁻¹ s⁻¹
4 | Anti-FOLR1x4 GGSx4 (monospecific tetravalent VHH-VHH-Fc) (antibody, part only; not given: hinge and wild-type Fc, not shown: a dimerising Fc or GST) chain, part: QVQLVESGGGLVQPGGSLRLSCAASGFTVSNSVMAWYRQTPGNEREFVAIINSIGITNYADSVKGRFTISRDNSKNTLYLQMNSLRAEDTAVYVCNRNFDRIYWGQGTLVTVSSGGSGGSGGSGGSQVQLVESGGGLVQPGGSLRLSCAASGFTVSNSVMAWYRQTPGNEREFVAIINSIGITNYADSVKGRFTISRDNSKNTLYLQMNSLRAEDTAVYVCNRNFDRIYWGQGTLVTVSS | 0.14 nM | 0.81 nM |  | 2.85 nM | 0.000853 s⁻¹ | 299000 M⁻¹ s⁻¹
